Results taken from patent publication US20200207859A1 (priority 2017, published 2020).

B1: Conjugate E (anti-CD74 IgG-PEG4-MMAF conjugate) (antibody, V domains shown)
VH: QVQLVESGGGVVQPGRSLRLSCAASGFNFSDYGMHWVRQAPGKGLEWVAVIWYDGSISYYADSVKGRFTISRDNSKNTLYLQMNSLRAEDTAVYYCARGGTVEHGAVYGTDVWGQGTTVTVSS
VL: DIQMTQSPSSVSASVGDRVTITCRASQGIGSWLAWYQQKPGKAPKLLIYAADRLQSGVPSRFSGSGSGTDFTLTISSLQPEDFATYYCQQYHTYPLTFGGGTKVEIK
modifications: here or on the partner: modified amino acid residue 30 (pAMF) according to Example 2, position not stated for this conjugate, linked to PEG4-MMAF
B2: Conjugate F (anti-CD74 IgG-PEG4-MMAE conjugate) (antibody, V domains shown)
VH: B1 VH
VL: B1 VL
modifications: here or on the partner: modified amino acid residue 30 (pAMF) according to Example 2, position not stated for this conjugate, linked to PEG4-MMAE
B3: Conjugate E: anti-CD74 IgG containing residue 30 conjugated to a PEG4-MMAF precursor (conjugate)
VH: B1 VH
VL: B1 VL
B4: Conjugate F: anti-CD74 IgG containing residue 30 conjugated to a PEG4-MMAE precursor (conjugate)
VH: B1 VH
VL: B1 VL
B5: Conjugate C: anti-CD74 IgG containing residue 30 conjugated to a val-cit-PAB-hemiasterlin precursor (conjugate)
VH: B1 VH
VL: B1 VL
modifications: non-natural residues

Columns and labels:
CD74 (human), P04233 = experiment: cell-based or functional assay
Chain of CD74 (human), P04233 (P04233 whole entry): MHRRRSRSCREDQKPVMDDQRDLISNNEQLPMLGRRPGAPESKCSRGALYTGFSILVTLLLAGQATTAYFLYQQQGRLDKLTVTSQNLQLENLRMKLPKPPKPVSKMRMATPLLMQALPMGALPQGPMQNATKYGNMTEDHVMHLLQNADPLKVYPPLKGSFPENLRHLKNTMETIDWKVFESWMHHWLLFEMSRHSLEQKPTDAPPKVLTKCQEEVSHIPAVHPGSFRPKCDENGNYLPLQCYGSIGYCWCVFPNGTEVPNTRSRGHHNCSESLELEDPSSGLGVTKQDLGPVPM

ARD (MM) = experiment: Cell killing assay (cell proliferation, Cell Titer-Glo); assay type: cell-based, human; conditions: 72 hrs
Procedure: (§1) Cytotoxicity effects of the free drug linkers and conjugates were measured with a cell proliferation assay. A total of 12500 cells in a volume of 25 μl were seeded in a 384-well flat bottom white polystyrene plate on the day of assay. Free drug-linkers and conjugates were formulated at 2× starting concentration (1000 nM for free drug linkers and 100 nM for ADCs) in RPMI medium and filtered through MultiScreen HTS 96-Well Filter Plates (Millipore). Filter sterilized samples were serial diluted (1:3) under sterile conditions and added into treatment wells. Plates were cultured at 37° C. in a CO2 incubator for 72 hrs. For cell viability measurement, 30 μl of Cell Titer-Glo® reagent (Promega Corp.) was added into each well, and plates processed as per product instructions. Relative luminescence was measured on an ENVISION® plate reader (Perkin-Elmer; Waltham, Mass.). Relative luminescence readings were converted to % viability using untreated cells as controls. Data was fitted with non-linear regression analysis, using log(inhibitor) vs. response, variable slope, 4 parameter fit equation using GraphPad Prism. Data was expressed as % relative cell viability vs. dose of free drug-linker or conjugate in nM.

SU-DHL-6 (NHL) = experiment: as above; assay type: cell-based, human; conditions: 72 hrs
Procedure: as §1

ARP-1 (MM) = experiment: as above; assay type: cell-based, human; conditions: 72 hrs
Procedure: as §1

RPMI-8226 (MM) = experiment: as above; assay type: cell-based; design: key to Cell Killing Activity Span: NK = no killing; NB = no binding; conditions: 72 hrs
Procedure: as §1

K562 (CML) = experiment: as above; assay type: cell-based; design: key to Cell Killing Activity Span: NK = no killing; NB = no binding; conditions: 72 hrs
Procedure: as §1

OPM-2 (MM) = experiment: as above; assay type: cell-based; design: key to Cell Killing Activity Span: NK = no killing; NB = no binding; conditions: 72 hrs
Procedure: as §1

SUP-B15 (ALL) = experiment: as above; assay type: cell-based; conditions: 72 hrs
Procedure: as §1

JVM-13 (CLL) = experiment: as above; assay type: cell-based; conditions: 72 hrs
Procedure: as §1

BDCM (AML) = experiment: as above; assay type: cell-based; conditions: 72 hrs
Procedure: as §1

RPMI-6666 (HL) = experiment: as above; assay type: cell-based; conditions: 72 hrs
Procedure: as §1

Molecule | cell killing IC50, ARD (MM) cells (CD74 (human), P04233) | cell killing IC50, ARP-1 (MM) cells (CD74 (human), P04233) | cell killing IC50, BDCM (AML) cells (CD74 (human), P04233) | cell killing IC50, JVM-13 (CLL) cells (CD74 (human), P04233) | cell killing IC50, RPMI-6666 (HL) cells (CD74 (human), P04233) | cell killing IC50, SU-DHL-6 (NHL) cells (CD74 (human), P04233) | cell killing IC50, SUP-B15 (ALL) cells (CD74 (human), P04233) | cell killing Span, ARD (MM) cells (CD74 (human), P04233) | cell killing Span, ARP-1 (MM) cells (CD74 (human), P04233) | Cell Killing Activity Span (ARD (MM)) | Cell Killing Activity Span (SU-DHL-6 (NHL)) | Cell Killing Activity Span (ARP-1 (MM)) | Cell Killing Activity Span (RPMI-8226 (MM)) | Cell Killing Activity Span (K562 (CML)) | IC50 (K562 (CML)) | Cell Killing Activity Span (OPM-2 (MM)) | IC50 (OPM-2 (MM)) | Cell Killing Activity Span (SUP-B15 (ALL)) | Cell Killing Activity Span (JVM-13 (CLL)) | Cell Killing Activity Span (BDCM (AML)) | further results
B1 | 18 nM | 6 nM | 3.3 nM | 7.8 nM | 1.5 nM | 0.5 nM | 2.5 nM | 20% | 71% | – | – | – | – | – | – | – | – | – | – | – | cell killing Span, BDCM (AML) cells (CD74 (human), P04233): 78%; cell killing Span, JVM-13 (CLL) cells (CD74 (human), P04233): 47%; cell killing Span, RPMI-6666 (HL) cells (CD74 (human), P04233): 80%; cell killing Span, SU-DHL-6 (NHL) cells (CD74 (human), P04233): 98%; cell killing Span, SUP-B15 (ALL) cells (CD74 (human), P04233): 58%
B2 | 16 nM | 4.2 nM | 1.4 nM | 5 nM | 0.7 nM | 0.3 nM | 3.7 nM | 73% | 93% | – | – | – | – | – | – | – | – | – | – | – | cell killing IC50, RPMI-8226 (MM) cells (CD74 (human), P04233): 20 nM; cell killing Span, BDCM (AML) cells (CD74 (human), P04233): 94%; cell killing Span, JVM-13 (CLL) cells (CD74 (human), P04233): 59%; cell killing Span, RPMI-6666 (HL) cells (CD74 (human), P04233): 82%; cell killing Span, RPMI-8226 (MM) cells (CD74 (human), P04233): 31%; cell killing Span, SU-DHL-6 (NHL) cells (CD74 (human), P04233): 97%; cell killing Span, SUP-B15 (ALL) cells (CD74 (human), P04233): 65%
B3 | – | – | – | – | – | – | – | – | – | 20% | 98% | 71% | NK | NK | > 50 nM | NK | > 50 nM | 58% | 47% | 78% | IC50 (ARD (MM)): 18 nM; IC50 (SU-DHL-6 (NHL)): 0.5 nM; IC50 (ARP-1 (MM)): 6 nM; IC50 (RPMI-8226 (MM)): > 50 nM; IC50 (SUP-B15 (ALL)): 2.5 nM; IC50 (JVM-13 (CLL)): 7.8 nM; IC50 (BDCM (AML)): 3.3 nM
B4 | – | – | – | – | – | – | – | – | – | 73% | 97% | 93% | 31% | NK | > 50 nM | NK | > 50 nM | 65% | 59% | 94% | IC50 (ARD (MM)): 16 nM; IC50 (ARP-1 (MM)): 4.2 nM; IC50 (RPMI-8226 (MM)): 20 nM; IC50 (SUP-B15 (ALL)): 3.7 nM; IC50 (JVM-13 (CLL)): 5 nM; IC50 (BDCM (AML)): 1.4 nM; Cell Killing Activity Span (RPMI-6666 (HL)): 82%
B5 | – | – | – | – | – | – | – | – | – | 74% | 97% | 87% | 43% | NK | > 50 nM | NK | > 50 nM | 68% | 54% | 89% | Cell Killing Activity Span (RPMI-6666 (HL)): 84%
